Laboratory results as given in patent publication US20100247590A1, “Peptide-Based Systems For Delivery Of Cosmetic Agents” (JOHNSON & JOHNSON, priority 2009, published 2010).

Experiments:
[1] = HC263-mediated binding of magnetic beads to surfaces, SEM score: SONTARA; details: surface SONTARA, 0.2 μM HC263
Experimental: (§1) Peptide HC263 (SEQ ID NO: 196) was tested for peptide-mediated binding of magnetic beads to various surfaces: human hair, yak hair, wool, cotton, SONTARA® (a nonwoven, spunlaced textile sheet fabric, E.I. duPont de Nemours and Company, Inc., Wilmington, Del.), and cellulose (filter paper). Approximately 5 mg of human hair (90% gray), yak hair, wool, cotton, SONTARA®, or filter paper were added to 2-mL microcentrifuge tubes. Approximately 1 mL of TBST0.1 buffer (25 mM Tris, 150 mM NaCl, pH 7.2, with 0.1% TWEEN®-20) containing 0.2 μM HC263 was added. The mixtures were shaken on a Nutator (BD Diagnostics, Franklin Lakes, N.J.) for 30 minutes at room temperature (˜22° C.). The samples were washed three times with TBST0.5 buffer (25 mM Tris, 150 mM NaCl, pH 7.2, with 0.5% TWEEN®-20). After washing, the samples were re-suspended in 900 μL TALON™ (Clontech, Mountain View, Calif.) buffer (50 mM sodium phosphate, pH 8.0, 300 mM sodium chloride, 0.01% TWEEN®-20). Approximately 0.2 mg of TALON™ beads (DYNABEADS® TALON™, Invitrogen, Carlsbad, Calif.; Catalog#101.01D) were washed twice with TALON™ buffer on the DYNAL® MPC™ magnet (Invitrogen) and added to each reaction in 100-μL TALON™ buffer.
(§2) The strength of binding of the magnetic beads to the various surfaces was evaluated by visualization of scanning electron microscope (SEM) images taken at 1000-fold magnification.

[2] = HC263-mediated binding of magnetic beads to surfaces, SEM score: cotton; details: surface cotton, 0.2 μM HC263
Experimental: as §1, §2

[3] = HC263-mediated binding of magnetic beads to surfaces, SEM score: yak hair; details: surface yak hair, 0.2 μM HC263
Experimental: as §1, §2

[4] = HC263-mediated binding of magnetic beads to surfaces, SEM score: wool; details: surface wool, 0.2 μM HC263
Experimental: as §1, §2

[5] = Peptide-mediated binding of Co-NTA magnetic beads to gray hair, visual rating on magnet; set-up: species or system human
Experimental: Approximately 5 mg of 5 mm long hair strands (90% gray, human) were transferred to 2-mL microcentrifuge tubes. Approximately 1 mL of TBST0.1 buffer (25 mM Tris, 150 mM NaCl, pH7.2, with 0.1% TWEEN®-20) or the same buffer including varying concentrations of HC263 peptide was added to the hair.
The mixtures were shaken on a Nutator for one hour at room temperature (˜22° C.). The hairs were washed three times with TBST0.5 buffer (25 mM Tris, 150 mM NaCl, pH 7.2, with 0.5% TWEEN®-20). After washing, the hairs were resuspended in 900 μL Talon buffer (50 mM sodium phosphate, pH 8.0, 300 mM sodium chloride, 0.01% TWEEN®-20). A subset of hair/peptide conjugates were washed additionally one time with 1 mL of 0.25% SLES (Sodium Lauryl Ether Sulfate) for 5 min at room temperature on the Nutator, then washed two times with 1 mL TBST0.1 buffer. Approximately 0.2 mg of TALON™ beads (DYNABEADS® TALONT™, Invitrogen, Catalog#101.01D) were washed twice with TALON™ buffer on the DYNAL® MPC™ magnet and added to each reaction in 100 μL TALON™ buffer. The magnetic beads were coated with Co-NTA, which specifically binds to the six histidine residues incorporated into the peptide (C-terminal his tag). The hair and beads were incubated for 10 minutes with gentle shaking before the tubes were placed on the magnet.
Beads binding to the hair were expected to co-migrate on the sides of the tubes once applied to the magnet. The strength of binding was visually assessed and rated on a scale of 0 (little or no observed binding) to 5 (highest amount of observed binding).
The hair binding assay of Example 3 was used to assess the strength of binding of the test peptides in Table 10.

[6] = HC263-mediated binding of magnetic beads to surfaces, SEM score: cellulose; details: surface cellulose (filter paper), 0.2 μM HC263
Experimental: as §1, §2

B1: MASGSDPS-Hair2-GPEPEPEPEPIPEPPKEAPVVIEKPKPKPKPKPKPPA-Gray3-GSGGGGSP-HHHHHH (peptide)
chain: MASGSDPSAQSQLPDKHSGLHERAPQRYGPEPEPEPEPIPEPPKEAPVVIEKPKPKPKPKPKPPAHDHKNQKETHQRHAAGSGGGGSPHHHHHH
- Strength of binding (5 highest, 0 lowest) [1]: 0
- Strength of binding (5 highest, 0 lowest) [2]: 0
- Strength of binding (5 highest, 0 lowest) [3]: 1
- Strength of binding (5 highest, 0 lowest) [4]: 0
- Strength of binding (5 highest, 0 lowest) ([5]; Table 9, peptide 0.002 μM, no SLES wash): 2
- Strength of binding (5 highest, 0 lowest) ([5]; Table 11, peptide 0.002 μM): 2
- Strength of binding (5 highest, 0 lowest) ([5]; Table 11, peptide 0.02 μM): 5
- Strength of binding (5 highest, 0 lowest) ([5]; Table 11, peptide 0.2 μM): 5
- Strength of binding (5 highest, 0 lowest) [6]: 0

B2: MASGSDPS-Hair2Rnd1-GPEPEPEPEPIPEPPKEAPVVIEKPKPKPKPKPKPPA-Gray3Rnd4-GSGGGGSP-HHHHHH (peptide)
chain: MASGSDPSDRSKLYQSLEHRQPPGAHAQGPEPEPEPEPIPEPPKEAPVVIEKPKPKPKPKPKPPAAHDAKHEHRKQNHTQGSGGGGSPHHHHHH
- Strength of binding (5 highest, 0 lowest) ([5]; Table 11, peptide 0.002 μM): 2
- Strength of binding (5 highest, 0 lowest) ([5]; Table 11, peptide 0.02 μM): 5
- Strength of binding (5 highest, 0 lowest) ([5]; Table 11, peptide 0.2 μM): 5
